Several values for one entry are separate records, joined by “and”; a condition that tells them apart may be missing. Identical values can stand only once.
Key:
[1] = target: Hemagglutinin (HA) of Influenza A virus A/Roma-ISS/2/08 (Brisbane-like) (oseltamivir-sensitive) H1N1 (Influenza A virus A/RomaISS/2/08 H1N1)
[2] = target: Hemagglutinin (HA) of Influenza A virus A/Parma/5/06 (Wisconsin-like) H3N2 (Influenza A virus A/Parma/05/06 H3N2); assay: cell-based or functional assay
[3] = target: Hemagglutinin (HA) of Influenza A virus A/Puerto Rico/8/34 H1N1 (PR8 virus) (Influenza A virus A/Puerto Rico/8/34 H1N1) (UniProt P03452); assay: cell-based or functional assay
[4] = target: Hemagglutinin (HA) of Influenza A virus A/Roma-ISS/2/08 (Brisbane-like) (oseltamivir-sensitive) H1N1 (Influenza A virus A/RomaISS/2/08 H1N1); assay: cell-based or functional assay
[5] = target: Hemagglutinin (HA) of Influenza A virus A/Turkey/Italy/2676/99 H7N1 (Influenza A virus A/Turkey/Italy/2676/99 H7N1); assay: cell-based or functional assay

With “Lactoferrin from bovine milk (bLf) (from UniProt P24627 20-708)” as the substance, how does the percentage of virus binding to bLf [1] read?
Its percentage of virus binding to bLf is 52.9% and 34.1% and 47.2%.

And the HI titre [2]?
The HI titre was 3000 pM.

And the HI titre [3]?
Its HI titre is 3 nM.

What about the HI titre [4] of the same substance?
Its HI titre is 6000 pM.

What about the HI titre [5] of the same substance?
Its HI titre is 93.1 fM.

Which results are given for “… (SEQ ID NO: 1), bLf C-lobe peptide 418-429”?
HI titre [2]: 0.7 pM; HI titre [3]: 0.7 nM; HI titre [4]: 1.4 pM; HI titre [5]: 18 fM

How did the HI titre [2] turn out when “… (SEQ ID NO: 2), bLf C-lobe peptide 506-522” was run?
Its HI titre is 0.7 pM.

And the HI titre [3]?
The HI titre was 0.35 nM.

What about the HI titre [4] of the same substance?
The HI titre was 1.4 pM.

What about the HI titre [5] of the same substance?
The HI titre was 46.5 fM.

From patent US20140322196A1
